Source: publication PMC9011129
Positions count from the first letter of the chain named. Like-named read-outs stand apart in the source and are kept apart here.

B1: Non1 42-mer (ssRNA)
RNA: CUUUUUGGAAUACGAAGCUGACACCGCGUGGUGUUUUUGCUU
modifications: 5' cap (Vaccinia capping system)
B2: RpL30 42-mer (ssRNA)
RNA: CUUUUGCCAUUGUCAGCCGACGAAGUGCUUUAACCCAAACUA
modifications: 5' cap (Vaccinia capping system)
B3: Purine-substituted RpL30 control (ssRNA)
RNA: B2 RNA with C1G, U2A, U3A, U4A, U5A
modifications: 5' cap (Vaccinia capping system)

What was measured:
Larp-DM15 [1] = molecular target: T1, Larp-DM15 (Drosophila melanogaster, UniProt Q9VAW5 1330-1481); test: EMSA
T1 sequence (Q9VAW5 1330-1481): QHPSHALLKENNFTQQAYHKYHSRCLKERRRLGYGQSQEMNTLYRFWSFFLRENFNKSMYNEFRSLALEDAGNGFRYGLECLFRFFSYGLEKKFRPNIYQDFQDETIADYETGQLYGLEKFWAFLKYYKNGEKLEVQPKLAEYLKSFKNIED

Larp-DM15 [2] = molecular target: T1, Larp-DM15; test: EMSA; remark: listed apart in the source

Row | Binder | binding result (Larp-DM15 [1]) | binding result (Larp-DM15 [2])
1 | B1 | binds | 
2 | B2 |  | binds
3 | B3 |  | no binding
